Source: IntAct's records for PubMed 18203820

Target: djb11_human DNAJB11 (UniProt Q9UBS4)
Sequence (Q9UBS4 whole entry): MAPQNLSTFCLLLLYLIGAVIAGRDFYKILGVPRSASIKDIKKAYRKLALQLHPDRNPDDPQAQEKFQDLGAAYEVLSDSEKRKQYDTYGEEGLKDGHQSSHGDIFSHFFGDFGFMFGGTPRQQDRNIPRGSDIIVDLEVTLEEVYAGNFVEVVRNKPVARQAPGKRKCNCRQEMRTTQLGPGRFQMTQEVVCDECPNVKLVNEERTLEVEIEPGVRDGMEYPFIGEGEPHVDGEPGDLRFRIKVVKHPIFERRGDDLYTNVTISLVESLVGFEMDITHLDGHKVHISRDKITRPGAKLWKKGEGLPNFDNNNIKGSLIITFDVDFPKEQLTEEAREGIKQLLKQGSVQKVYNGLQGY

Endoplasmic reticulum chaperone BiP (Mesocricetus auratus (Golden hamster)), P07823 R197E
effect of a mutation on the interaction: disrupting interaction
